# Assay results published in patent US20050037963A1.
# How the values were obtained:
# [1] = molecular target: endogenous FAK of NIH 3T3 cells (mouse) (UniProt P34152); test: cell-based or functional assay
# [2] = molecular target: endogenous FIP200 of NIH 3T3 cells (mouse) (UniProt Q9ESK9); test: cell-based or functional assay
# Sequence of endogenous FIP200 of NIH 3T3 cells (mouse) (Q9ESK9 whole entry): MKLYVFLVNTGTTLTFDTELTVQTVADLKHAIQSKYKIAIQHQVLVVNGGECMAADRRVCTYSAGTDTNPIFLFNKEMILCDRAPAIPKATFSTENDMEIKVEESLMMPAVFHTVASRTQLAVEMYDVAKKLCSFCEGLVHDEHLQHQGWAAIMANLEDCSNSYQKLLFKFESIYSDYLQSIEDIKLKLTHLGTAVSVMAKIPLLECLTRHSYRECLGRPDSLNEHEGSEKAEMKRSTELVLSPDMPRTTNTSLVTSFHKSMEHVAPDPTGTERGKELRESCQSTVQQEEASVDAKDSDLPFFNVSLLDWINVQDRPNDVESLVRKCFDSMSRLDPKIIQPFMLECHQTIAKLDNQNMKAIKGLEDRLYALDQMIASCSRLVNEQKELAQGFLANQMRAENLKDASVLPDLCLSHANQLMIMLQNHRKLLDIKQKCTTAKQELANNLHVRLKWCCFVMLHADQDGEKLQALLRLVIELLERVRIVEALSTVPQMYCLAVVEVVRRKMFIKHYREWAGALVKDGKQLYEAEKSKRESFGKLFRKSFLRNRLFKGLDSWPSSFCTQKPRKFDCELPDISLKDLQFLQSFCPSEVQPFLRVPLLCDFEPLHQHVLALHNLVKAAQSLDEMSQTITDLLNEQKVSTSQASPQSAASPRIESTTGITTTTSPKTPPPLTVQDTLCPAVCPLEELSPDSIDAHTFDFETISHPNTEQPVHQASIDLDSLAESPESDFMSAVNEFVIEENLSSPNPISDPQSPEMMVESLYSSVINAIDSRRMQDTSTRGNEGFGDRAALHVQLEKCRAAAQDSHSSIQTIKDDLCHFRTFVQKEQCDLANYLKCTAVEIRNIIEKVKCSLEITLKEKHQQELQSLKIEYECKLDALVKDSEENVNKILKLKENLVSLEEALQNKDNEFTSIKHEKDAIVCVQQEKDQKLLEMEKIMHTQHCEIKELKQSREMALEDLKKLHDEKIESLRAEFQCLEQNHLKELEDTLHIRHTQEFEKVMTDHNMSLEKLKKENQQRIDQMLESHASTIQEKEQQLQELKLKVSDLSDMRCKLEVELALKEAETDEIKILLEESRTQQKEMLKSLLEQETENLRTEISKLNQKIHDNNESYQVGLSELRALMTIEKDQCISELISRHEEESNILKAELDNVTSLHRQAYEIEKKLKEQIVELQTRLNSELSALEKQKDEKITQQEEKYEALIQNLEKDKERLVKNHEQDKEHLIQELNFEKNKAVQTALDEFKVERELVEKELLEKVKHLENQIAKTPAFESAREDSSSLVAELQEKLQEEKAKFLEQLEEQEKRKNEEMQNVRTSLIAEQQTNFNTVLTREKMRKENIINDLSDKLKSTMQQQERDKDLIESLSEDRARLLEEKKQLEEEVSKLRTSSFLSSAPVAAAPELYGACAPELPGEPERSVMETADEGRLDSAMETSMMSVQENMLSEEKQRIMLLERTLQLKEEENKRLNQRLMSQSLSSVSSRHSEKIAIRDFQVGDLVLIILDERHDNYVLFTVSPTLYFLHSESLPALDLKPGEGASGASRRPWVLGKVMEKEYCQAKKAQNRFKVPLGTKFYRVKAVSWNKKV
# Sequence of endogenous FAK of NIH 3T3 cells (mouse) (P34152 2-1052 limits assumed): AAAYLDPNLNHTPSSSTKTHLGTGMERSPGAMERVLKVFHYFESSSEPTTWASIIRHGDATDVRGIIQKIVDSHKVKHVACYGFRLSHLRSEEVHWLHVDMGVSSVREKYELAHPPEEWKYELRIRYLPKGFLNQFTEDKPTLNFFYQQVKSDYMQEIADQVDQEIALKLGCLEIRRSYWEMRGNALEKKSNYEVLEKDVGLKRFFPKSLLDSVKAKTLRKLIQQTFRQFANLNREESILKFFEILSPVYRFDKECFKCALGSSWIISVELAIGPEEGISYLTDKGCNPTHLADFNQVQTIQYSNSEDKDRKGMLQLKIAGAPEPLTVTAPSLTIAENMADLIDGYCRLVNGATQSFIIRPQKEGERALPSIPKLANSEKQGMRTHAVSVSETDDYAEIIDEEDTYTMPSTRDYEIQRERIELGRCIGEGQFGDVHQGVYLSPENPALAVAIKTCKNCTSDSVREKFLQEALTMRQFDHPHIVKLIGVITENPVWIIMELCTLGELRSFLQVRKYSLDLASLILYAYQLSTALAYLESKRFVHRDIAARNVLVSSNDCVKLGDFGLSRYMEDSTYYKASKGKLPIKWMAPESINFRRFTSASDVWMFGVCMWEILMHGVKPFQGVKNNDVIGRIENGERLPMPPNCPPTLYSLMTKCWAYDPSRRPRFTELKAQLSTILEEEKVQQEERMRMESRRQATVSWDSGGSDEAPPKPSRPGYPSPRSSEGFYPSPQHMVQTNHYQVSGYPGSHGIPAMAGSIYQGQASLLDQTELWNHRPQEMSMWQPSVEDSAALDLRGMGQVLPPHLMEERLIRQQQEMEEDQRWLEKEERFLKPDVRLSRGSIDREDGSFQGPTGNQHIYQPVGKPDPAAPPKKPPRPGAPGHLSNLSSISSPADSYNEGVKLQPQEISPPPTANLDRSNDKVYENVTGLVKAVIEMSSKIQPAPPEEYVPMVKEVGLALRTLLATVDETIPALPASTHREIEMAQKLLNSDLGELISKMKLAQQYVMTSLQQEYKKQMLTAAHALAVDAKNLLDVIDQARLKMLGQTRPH
Substance,"inhibition of cell spreading on FN (NIH3T3, β-gal cotransfection) [1] [%]",also measured
"Flag-tagged MD-FIP (middle domain FIP200, residues 639-1373) (from UniProt Q8TDY2 639-1373)",50,–
"Flag-tagged NT-FIP (NH2-terminal FIP200, residues 1-638) (from UniProt Q8TDY2 1-638)",50,–
Flag-tagged full-length FIP200 (from UniProt Q8TDY2 1-1594),50,–
"HA-tagged KD^KR (FAK kinase domain, residues 403-672, with the kinase-defective mutation K454 to R)",–,"cells entering S-phase on PLL (BrdU incorporation, NIH3T3) [2]: 30%"
"HA-tagged full-length FIP200 (pKH3-FIP200, residues 1-1591) (from UniProt Q8TDY2 1-1594)",–,"inhibition of cell cycle progression (BrdU incorporation, NIH3T3) [1]: 90%"
